Source: patent publication US20050112108, “Transcriptional regulator of genes involved in the control of cell growth or cell proliferation. Use of said regulator as a therapeutic or diagnostic agent” (published 2005)

T1: GAAP-1 (IPCS-BF1, 2.5 kb PRDII-BF1 splice product) (Homo sapiens, UniProt P15822 SEQ:1-693)
T1 chain: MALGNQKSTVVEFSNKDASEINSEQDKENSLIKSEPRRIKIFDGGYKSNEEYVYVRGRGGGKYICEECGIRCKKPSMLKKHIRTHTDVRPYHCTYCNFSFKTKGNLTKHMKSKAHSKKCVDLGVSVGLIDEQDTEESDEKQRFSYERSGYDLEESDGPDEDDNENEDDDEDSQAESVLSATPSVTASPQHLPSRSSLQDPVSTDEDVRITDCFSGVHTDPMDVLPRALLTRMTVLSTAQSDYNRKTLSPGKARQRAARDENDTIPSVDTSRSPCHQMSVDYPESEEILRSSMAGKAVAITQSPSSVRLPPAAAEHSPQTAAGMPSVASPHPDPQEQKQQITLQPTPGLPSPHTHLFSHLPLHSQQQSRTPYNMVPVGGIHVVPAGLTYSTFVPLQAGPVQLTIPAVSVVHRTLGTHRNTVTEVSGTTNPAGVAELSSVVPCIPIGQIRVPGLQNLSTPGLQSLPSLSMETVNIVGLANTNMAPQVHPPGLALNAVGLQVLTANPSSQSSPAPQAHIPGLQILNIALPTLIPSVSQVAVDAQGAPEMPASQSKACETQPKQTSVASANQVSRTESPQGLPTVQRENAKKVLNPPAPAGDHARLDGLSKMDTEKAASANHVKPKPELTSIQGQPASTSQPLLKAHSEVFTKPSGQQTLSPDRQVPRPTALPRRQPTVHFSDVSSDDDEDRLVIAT

B1: IPCS-p53 EMSA probe (dsDNA)
DNA 1: AATGCAGGATTCCTCCAAAATGATTTCCAC
DNA 2: GTGGAAATCATTTTGGAGGAATCCTGCATT
B2: NF-kB-MHC (dsDNA)
DNA 1: GATCCTCTGGGGATTCCCCATGGA
DNA 2: TCCATGGGGAATCCCCAGAGGATC

Columns and labels:
[1] = biological target: T1, GAAP-1 (IPCS-BF1, 2.5 kb PRDII-BF1 …); experiment: EMSA; one complex; competed by 50-fold excess; weaker than NF-kB probe in vitro; settings: tags: none (TNT reticulocyte lysate, pcDNA3.1); label: 32P
Experimental: FIG. 5a)—EMSA using the IPCS-p53 probe and in vitro translated GAAP-1 (lane1), GAAP-1 mtZ1 (lane 3), GAAP-1 mt Z2 (lane 5), or reticulocyte lysat with the empty expression vector (lane 7). Even lanes: 50 fold molar excess of IPCS-p53 oligonucleotide was added to the reaction of the previous lane. The arrow indicates the specific complex.
Synthetic double stranded oligonucleotide probes were labelled with α-³²P dCTP (Amersham Corp.) by “filling-in” with Sequenase, and then purified on Sephadex G-50. The protein-DNA binding reactions were carried out using 5 μg of nuclear extract and 0.1 fmol of probe in 20 μl of binding buffer (20 mM Tris-HCl, 25 mM KCl, 1 mM DTT, 1 mM EDTA, 0.1% Nonidet P40, 4% glycerol, 1 mg/ml bovine serum alcbumin, μg/ml poly(dI-dC)) for 20 min at 4° C. In vitro translation products were generated by 50 μl of TNT coupled reticulocyte Lysate System (Promega) and 1 μg of the appropriate plasmid. […]
PRDII-BF1 was previously described as a protein binding to an NF-κB site whose ability to recognise the DNA is determined by two pairs of zinc fingers, one of them present in GAAP-1 (Fan 90, Gaynor, Baldwin). […] To confirm the binding specificity of the cloned GAAP-1 for the IPCS target sequence, in vitro translated GAAP-1 was incubated with labelled IPCS or NF-κB oligonucleotide and analysed by Electro Mobility Shift Assay (EMSA). […]

[2] = biological target: T1, GAAP-1 (IPCS-BF1, 2.5 kb PRDII-BF1 …); experiment: EMSA; two complexes (possible homodimer); considerably stronger than IPCS-p53; settings: tags: none (TNT reticulocyte lysate, pcDNA3.1); label: 32P
Experimental: The protein-DNA binding reactions were carried out using 5 μg of nuclear extract and 0.1 fmol of probe in 20 μl of binding buffer (20 mM Tris-HCl, 25 mM KCl, 1 mM DTT, 1 mM EDTA, 0.1% Nonidet P40, 4% glycerol, 1 mg/ml bovine serum alcbumin, μg/ml poly(dI-dC)) for 20 min at 4° C. In vitro translation products were generated by 50 μl of TNT coupled reticulocyte Lysate System (Promega) and 1 μg of the appropriate plasmid. 5 μl of the in vitro product was used instead of the nuclear extract when required. The reaction mixture was then electrophoresed on a 6% non denaturing acrylamide gel. Competition experiments were carried out using a 50-fold molar excess of the unlabelled probe. The following oligonucleotides (and their complementary strands) were used in these studies:
PRDII-BF1 was previously described as a protein binding to an NF-κB site whose ability to recognise the DNA is determined by two pairs of zinc fingers, one of them present in GAAP-1 (Fan 90, Gaynor, Baldwin). […] To confirm the binding specificity of the cloned GAAP-1 for the IPCS target sequence, in vitro translated GAAP-1 was incubated with labelled IPCS or NF-κB oligonucleotide and analysed by Electro Mobility Shift Assay (EMSA). […] Furthermore, the affinity of in vitro translated GAAP-1 was considerably stronger for the NF-κB probe than for the IPCS-P53 probe. […]

Binder	binding result [1]	binding result [2]
B1	binds	–
B2	–	binds
